Results on 2 proteins are retold here after patent publication US20210322511A1 (Harvard, published 2021).

Series [1] deals with the molecule itself. Put plainly: SEC, then non-reducing and reducing SDS-PAGE. For orientation: In gel filtration, larger molecules generally elute earlier.
Series [2] concerns the molecule itself. Put plainly: non-reducing SDS-PAGE, disulfide-linked homodimer.
Procedure: Fractions of the last SEC were analyzed by SDS-PAGE and Coomassie-blue staining. The position of SP-B is indicated by an arrow.
The extract was subjected to chromatography on a Sepharose LH-20 column to remove phospholipids. Protein fractions were dried, dissolved in the detergent octylglucoside, and further purified by size-exclusion chromatography (SEC).

B1: recombinant human SP-BM (other)
chain: PIPLPYCWLCRALIKRIQAMIPKGALAVAVAQVCRVVPLVAGGICQCLAERYSVILLDTLLGRMLPQLVCRLVLRCSM
modifications: inter-molecular disulfide bond in the dimer
notes: also called recombinant SP-BM
Regarding B1, the binding result in series [1] is recorded as “binds”.

B2: SP-BM purified from bovine lungs (other, UniProt P15781 188-266, looked up)
chain: FPIPIPYCWLCRTLIKRIQAVIPKGVLAMTVAQVCHVVPLLVGGICQCLVERYSVILLDTLLGRMLPQLVCGLVLRCSS
modifications: monomers disulfide-linked through Cys48
notes: domain: SP-BM; also called bovine SP-BM; mature SP-B
For B2, the binding result in series [2] is given as “binds”.
